Test results from US20100260765A1 (AstraZeneca / MedImmune, published 2010).

B1: 27D10 (antibody, V domains shown)
VH: QLQLQESGPGLVKPSETLSLTCTVSGGSISSRSDYWGWIRQPPGKGLEWIGTIYYSGSTFYNPSLKSRVTISVDTSKNQFSLKLSSVTAADTAVYYCARQQLVLYYFDYWGQGTLVTVSS
VL: not shown
notes: Purified fully human monoclonal antibody from XenoMouse hybridoma (IgG2 or IgG4 strains); also called MAb 27D10
B2: 33C3 (antibody, V domains shown)
VH: QVQLVESGGGLVKPGESLRLSCAASGFTFSDYYMSWIRQAPGKGLEWVSYISHGGSTIYYADSVKGRFTISRDNAKNSLYLQMNSLRVEDTAVYFCARDDFWSGYYFNWFDPWGQGALVTVSS
VL: DIQMTQYPLSLSASVGDRVTITCRASQSISSFLNWYHQKPGKAPKLLIYGTSSLQSGVPSRFSGSGSGTDFTLTISSLQPEDFATYYCQQTYSIPLTFGGGTNVEIK
notes: Purified fully human monoclonal antibody from XenoMouse hybridoma (IgG2 or IgG4 strains); also called MAb 33C3
B3: 24B3 (antibody, V domains shown)
VH: EVQLVESGGGLVKPGGSLRLSCAASGFTFSTYSMNWVRQAPGKGLEWVSFISGRSSYIYYADSVKGRFTISRDNAKNSLYLQMNSLRAEDTAVYYCSKDDWFEELWGQGTLVTVSS
VL: DIQMTQSPSSLSASVGDRVTITCRASQGIRSDLGWYQQKPGKAPKRLIYATSSLQSGVPSRFSGSGSGTEFTLTISSLQPEDFATYYCLQHNRYPWTFGQGTKVEIK
notes: Purified fully human monoclonal antibody from XenoMouse hybridoma (IgG2 or IgG4 strains); also called MAb 24B3

What was measured:
human KDR on cells = human KDR on cells (human, UniProt P35968 20-1356); experiment: cell-based or functional assay
[1] = biological target: T1, KDR (antigen used as analyte in the Biacore assay) (UniProt P35968 20-764, limits assumed); experiment: SPR, Biacore 2000; antibody amine-coupled on CM4 chip, KDR as analyte; global 1:1 fit; 23 C
T1 construct: also called the antigen KDR
Experimental: Each purified anti-KDR antibody was immobilized on a CM4 sensor chip within a Biacore 2000 using standard amine coupling. Immobilization levels were kept between 250 and 350 RU. The concentration of KDR was determined by UV-VIS spectroscopy using a molar absorptivity at 280 nm of 110, 440 M⁻¹ cm⁻¹, which was calculated from the sequence of the protein using a method developed by Pace et al. (G. R. Grimsley and C. N. Pace (2003) in Current Protocols in Protein Science (John Wiley & Sons, Inc.), 3.1.1-3.1.9). The antigen KDR was diluted to a starting concentration of 52 nM and tested in a 3-fold dilution series in triplicate. The running buffer contained HBS-P with 0.1 mg/ml BSA and binding responses were collected at 23 degrees C. […] The response data were globally fit with a simple 1:1 interaction model. The number shown in parentheses is the standard error in the last significant figure.

T1 sequence (P35968 20-764 limits assumed): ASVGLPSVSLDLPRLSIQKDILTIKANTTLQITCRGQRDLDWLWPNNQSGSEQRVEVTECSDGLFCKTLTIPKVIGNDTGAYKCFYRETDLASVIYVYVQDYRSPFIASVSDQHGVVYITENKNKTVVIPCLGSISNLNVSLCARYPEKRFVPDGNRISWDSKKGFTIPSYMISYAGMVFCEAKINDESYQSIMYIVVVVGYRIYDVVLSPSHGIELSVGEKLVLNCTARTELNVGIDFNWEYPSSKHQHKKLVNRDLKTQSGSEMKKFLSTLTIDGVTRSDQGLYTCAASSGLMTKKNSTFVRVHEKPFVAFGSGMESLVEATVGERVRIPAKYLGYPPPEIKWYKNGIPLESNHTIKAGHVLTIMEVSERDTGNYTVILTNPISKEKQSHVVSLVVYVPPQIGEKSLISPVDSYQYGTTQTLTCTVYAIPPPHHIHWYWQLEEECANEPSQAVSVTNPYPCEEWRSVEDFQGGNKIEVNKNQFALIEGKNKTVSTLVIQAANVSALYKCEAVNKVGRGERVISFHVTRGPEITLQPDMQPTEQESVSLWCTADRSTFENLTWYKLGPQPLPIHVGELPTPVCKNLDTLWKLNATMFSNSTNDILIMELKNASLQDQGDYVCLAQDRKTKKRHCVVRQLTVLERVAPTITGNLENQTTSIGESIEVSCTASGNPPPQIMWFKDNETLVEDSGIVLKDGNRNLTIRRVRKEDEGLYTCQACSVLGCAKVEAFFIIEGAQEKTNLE
Sequence of human KDR on cells (P35968 20-1356): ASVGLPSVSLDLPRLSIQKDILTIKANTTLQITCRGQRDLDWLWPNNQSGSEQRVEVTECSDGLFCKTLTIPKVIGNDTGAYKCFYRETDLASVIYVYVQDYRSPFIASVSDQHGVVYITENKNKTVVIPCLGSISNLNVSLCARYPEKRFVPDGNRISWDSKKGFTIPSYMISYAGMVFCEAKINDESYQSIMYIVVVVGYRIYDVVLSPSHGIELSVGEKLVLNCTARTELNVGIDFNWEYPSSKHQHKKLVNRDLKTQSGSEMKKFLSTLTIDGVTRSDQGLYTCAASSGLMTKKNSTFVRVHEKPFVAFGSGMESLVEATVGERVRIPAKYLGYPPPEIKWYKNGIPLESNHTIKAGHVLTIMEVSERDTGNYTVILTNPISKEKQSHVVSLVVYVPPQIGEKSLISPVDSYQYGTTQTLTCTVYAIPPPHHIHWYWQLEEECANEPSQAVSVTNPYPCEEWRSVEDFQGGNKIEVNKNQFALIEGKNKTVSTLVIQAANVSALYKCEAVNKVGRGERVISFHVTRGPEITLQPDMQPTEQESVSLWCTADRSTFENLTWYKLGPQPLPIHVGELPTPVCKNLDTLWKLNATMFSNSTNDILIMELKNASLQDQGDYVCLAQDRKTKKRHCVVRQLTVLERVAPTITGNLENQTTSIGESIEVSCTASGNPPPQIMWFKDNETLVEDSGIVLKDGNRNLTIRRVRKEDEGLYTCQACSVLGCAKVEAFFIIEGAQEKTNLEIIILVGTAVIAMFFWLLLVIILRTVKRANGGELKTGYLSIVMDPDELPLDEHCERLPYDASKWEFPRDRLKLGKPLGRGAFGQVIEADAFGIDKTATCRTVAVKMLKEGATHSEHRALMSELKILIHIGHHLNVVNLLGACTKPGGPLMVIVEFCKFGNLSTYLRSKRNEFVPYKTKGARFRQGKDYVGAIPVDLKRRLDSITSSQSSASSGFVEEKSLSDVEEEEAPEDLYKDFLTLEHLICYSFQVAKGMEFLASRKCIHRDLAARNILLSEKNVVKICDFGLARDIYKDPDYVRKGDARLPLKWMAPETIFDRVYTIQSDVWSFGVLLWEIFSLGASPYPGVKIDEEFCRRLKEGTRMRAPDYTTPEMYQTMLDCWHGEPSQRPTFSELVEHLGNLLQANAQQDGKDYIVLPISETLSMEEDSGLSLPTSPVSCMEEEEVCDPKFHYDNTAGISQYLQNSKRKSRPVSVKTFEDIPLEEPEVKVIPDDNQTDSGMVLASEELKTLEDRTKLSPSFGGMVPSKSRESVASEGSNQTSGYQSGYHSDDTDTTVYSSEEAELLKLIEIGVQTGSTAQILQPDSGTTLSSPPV

Binder | % Inhibition (Average) of VEGF-C-mediated KDR activity, antibody 1 nM (human KDR on cells) [%] | % Inhibition (Average) of VEGF-C-mediated KDR activity, antibody 10 nM (human KDR on cells) [%] | % Inhibition (Average) of VEGF-C-mediated KDR activity, antibody 100 nM (human KDR on cells) [%] | % Inhibition (N = 1) of VEGF-C-mediated KDR activity, antibody 1 nM (human KDR on cells) [%] | % Inhibition (N = 1) of VEGF-C-mediated KDR activity, antibody 10 nM (human KDR on cells) [%] | % Inhibition (N = 1) of VEGF-C-mediated KDR activity, antibody 100 nM (human KDR on cells) [%] | % Inhibition (N = 2) of VEGF-C-mediated KDR activity, antibody 1 nM (human KDR on cells) [%] | % Inhibition (N = 2) of VEGF-C-mediated KDR activity, antibody 10 nM (human KDR on cells) [%] | % Inhibition (N = 2) of VEGF-C-mediated KDR activity, antibody 100 nM (human KDR on cells) [%] | Kd [1] [nM] | koff [1] [s⁻¹] | kon [1] [M⁻¹ s⁻¹]
B1 | 51 | 76 | 80 | 52 | 73 | 76 | 50 | 79 | 84 | 4.91 | 0.000254 | 51800
B2 | 66 | 88 | 85 | 71 | 87 | 84 | 61 | 89 | 86 | 0.91 | 9.3e-05 | 102000
B3 | 30 | 62 | 71 | 26 | 61 | 67 | 34 | 62 | 75 | 1.09 | 0.000191 | 175000
